Reference: PMC7395439, “Identification of the initial nucleocapsid recognition element in the HIV-1 RNA packaging signal”

Legend:
[1] = molecular target: HIV-1 nucleocapsid protein (NC) (HIV-1 NL4-3) (UniProt P12493); assay: ITC; conditions: ITC: 10 mM Tris-HCl pH 7.0, 140 mM KCl, 10 mM NaCl, 5 mM MgCl2, 5 mM TCEP, 30 °C; NC (120-240 µM) titrated into RNA (0.6-4 µM)
[2] = molecular target: T1, HIV-1 nucleocapsid protein (NC) (HIV-1 NL4-3, UniProt P12493); assay: ITC; exothermic only, n=1.2±0.1; ITC: 10 mM Tris-HCl pH 7.0, 140 mM KCl, 10 mM NaCl, 5 mM MgCl2, 5 mM TCEP, 30 °C; NC (120-240 µM) titrated into RNA (0.6-4 µM); conditions: protein: recombinant; tags: none stated; hairpin, blunt
[3] = molecular target: T1, HIV-1 nucleocapsid protein (NC); assay: ITC; exothermic only, n=1.8±0.1; ITC: 10 mM Tris-HCl pH 7.0, 140 mM KCl, 10 mM NaCl, 5 mM MgCl2, 5 mM TCEP, 30 °C; NC (120-240 µM) titrated into RNA (0.6-4 µM); conditions: protein: recombinant; tags: none stated; hairpin with single-stranded 3' GGAG region
[4] = molecular target: T1, HIV-1 nucleocapsid protein (NC); assay: ITC; exothermic only, n=1.2±0.3; ITC: 10 mM Tris-HCl pH 7.0, 140 mM KCl, 10 mM NaCl, 5 mM MgCl2, 5 mM TCEP, 30 °C; NC (120-240 µM) titrated into RNA (0.6-4 µM); conditions: protein: recombinant; tags: none stated; hairpin, blunt
[5] = molecular target: T1, HIV-1 nucleocapsid protein (NC); assay: ITC; exothermic sites, n=6.6±0.2 per dimer; ITC: 10 mM Tris-HCl pH 7.0, 140 mM KCl, 10 mM NaCl, 5 mM MgCl2, 5 mM TCEP, 30 °C; NC (120-240 µM) titrated into RNA (0.6-4 µM); conditions: protein: recombinant; tags: none stated; duplex dimer of 2 strands
[6] = molecular target: T1, HIV-1 nucleocapsid protein (NC); assay: ITC; exothermic sites, n=2.8±0.3; ITC: 10 mM Tris-HCl pH 7.0, 140 mM KCl, 10 mM NaCl, 5 mM MgCl2, 5 mM TCEP, 30 °C; NC (120-240 µM) titrated into RNA (0.6-4 µM); conditions: protein: recombinant; tags: none stated; hairpin, unpaired 5'-GA and AG-3' ends
[7] = molecular target: T1, HIV-1 nucleocapsid protein (NC); assay: ITC; endothermic sites, n=2.3±0.2; ITC: 10 mM Tris-HCl pH 7.0, 140 mM KCl, 10 mM NaCl, 5 mM MgCl2, 5 mM TCEP, 30 °C; NC (120-240 µM) titrated into RNA (0.6-4 µM); conditions: protein: recombinant; tags: none stated; hairpin, unpaired 5'-GA and AG-3' ends

With 5'-L (5'-L344) the Kd [1] was 880 nM.

In the case of 5'-LΔPBS, the Kd [1] is reported as 760 nM.

With TAR-PolyA the Kd [1] was 1320 nM.

B1: Ψ-apical loop (structured_RNA)
RNA: GGACUAGCGGAGGCUAGUCC
B1 showed a Kd [2] of 320 ± 30 nM.

B2: Ψ-fragment (structured_RNA)
RNA: GACUAGCGGAGGCUAGAAGGAG
B2 gave a Kd [3] of 450 ± 30 nM.

B3: ΨHP-stable (structured_RNA)
RNA: GGUUUUGACUAGCGGAGGCUAGAAGGAGCC
B3 gave a Kd [4] of 300 ± 150 nM.

B4: DIS (structured_RNA)
RNA: GGCAGGACUCGGCUUGCUGAAGCGCGCACGGCAAGAGGCGAGGGGCC
With B4 the Kd [5] was 340 ± 30 nM.

B5: ΨHP (structured_RNA)
RNA: GAUUUUGACUAGCGGAGGCUAGAAGGAGAG
For B5, the Kd [6] was 1540 ± 240 nM and the Kd [7] was 26 ± 21 nM.
